Data from US20040001822A1, “Y1-isolated molecules comprising epitopes containing sulfated moieties, antibodies to such epitopes, and uses thereof” (priority 2000, published 2004).

Assays:
[1] = system: RP-HPLC KG-1 membrane fraction; assay: Western blot with Y1 on enzyme-treated KG-1 membrane fraction; format: binding, human
Description: (§1) Y1 ligand was further characterized using enzymatic treatments with proteases, glycanases, and […]; Western blotting with Y1, anti-CD42 antibodies, anti-CD162 antibodies and 181, immunoprecipitation using Y1 and anti-CD162 antibodies; FACS analysis using Y1 anti-CD162 antibodies; and sequencing.
(§2) The table below summarizes the biochemical experiments preformed to characterize and localize the Y1 binding site on KG-1 cells.
(§3) Western Blot Analysis with Y1 on SDS-PAGE Reducing Gels
(§4) The nitrocellulose membrane was blocked using 5% skim milk for one hour at room temperature. The membrane was then washed 3 times for 5 minutes each with 0.05% Tween 20 in PBS at room temperature. The membrane was incubated with 5 μg/ml Y1-biotin (or 181-biotin) in 2% skim milk in PBS for one hour at room temperature. The membrane was then washed 3 times for 5 minutes each with cold 0.05% Tween 20 in PBS in the cold room (about 4 to about 10° C.). The membrane was then incubated in the cold room with a 1:1000 dilution of SAV-HRP (streptavidin-HRP) (at a final concentration of […]) in 2% skim milk, 0.05% Tween. The dilution was carried out at room temperature (about 25° C.), then the diluted SAV-HRP was cooled on ice for 10-15 minutes before use. The incubation was carried out for 1 hour with gentle shaking. After the incubation with SAV-HRP, the membrane was washed, as above. The membrane was then incubated with Super Signal mixture (Pierce) for 5 minutes as directed in the commercial protocol, then excess solution was dried. The membrane was use to expose it to X-ray film (Fuji), and the film was developed.

Glycocalicin (GC) = assay: Western blot with Y1 on enzyme-treated glycocalicin; format: binding, human; settings: O-Sialo glycoprotein endopeptidase, 30′ at 37° C.
Chain of Glycocalicin (GC) (P07359 17-298 limits assumed): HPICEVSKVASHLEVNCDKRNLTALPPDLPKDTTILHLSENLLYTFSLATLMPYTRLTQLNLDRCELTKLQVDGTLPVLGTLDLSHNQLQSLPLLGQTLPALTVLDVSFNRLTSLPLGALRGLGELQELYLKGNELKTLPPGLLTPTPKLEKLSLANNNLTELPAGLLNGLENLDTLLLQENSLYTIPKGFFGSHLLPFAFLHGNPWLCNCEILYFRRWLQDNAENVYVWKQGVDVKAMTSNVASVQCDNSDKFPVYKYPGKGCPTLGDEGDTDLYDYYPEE
Description: as §1, §2, §3
as §4, with “The membrane was then incubated with Super Signal mixture (Pierce) for 5 minutes as directed in the commercial protocol, then excess solution was dried. The membrane was use to expose it to X-ray film (Fuji), and the film was developed.” left out

washed platelets = assay: Ristocetin-induced agglutination of washed platelets after preincubation with scFv; format: cell-based, human
Procedure: Aggregation is determined in PRP due to the presence of thrombotic agents, while agglutination is determined in washed platelets. The effect of Y1 (scFv) on agglutination of washed platelets was tested at various concentrations of Y1. Platelets were pre-incubated with Y1 scFv, Y17 scFv, Y16-scFv, or a control TM-1 scFv for 4 min at 37° C. before being exposed to ristocetin, an inducer of platelet agglutination and aggregation.
Platelet concentrate in acid-citrate-dextrose (ACD) was obtained from a blood bank, platelets were isolated, washed once in buffer containing ACD and saline in a ratio of 1:7. The platelets were centrifuged at 800 g for 10 min after each wash and were resuspended in Tyrodes solution (2 mM MgCl2, 137 mM NaCl, 2.68 mM KCl, 3 mM NaH2PO4, 0.1% glucose, 5 mM Hepes and 0.35% albumin, pH 7.35) and count the number of cells.
(§5) For platelet aggregation studies, platelet rich plasma (PRP) and washed platelets were stirred at 500 rpm at 37° C. in whole blood Lumiaggregometer (Chronolog, Havertown,Pa.). The difference in light transmission through the platelet suspension and suspending medium was taken as 100% aggregation. The effect of Y1 on platelet aggregation was evaluated by addition of different concentration of Y1 before the addition of agonist, and the effect was recorded for four minutes.
The effect of Y17-scFv on vWF-dependent agglutination of platelets was tested at different concentrations of Y17.

Jurkat cells = assay: FACS binding of IgG-Y1 compared with scFv-Y1; parameters: species or system human; settings: 5 ng IgG-Y1 versus 1 μg scFv-Y1, Jurkat cells
Procedure: Binding of full size IgG-Y1 molecule: Binding experiments were performed to determine the level of binding of the IgG-Y1 molecule compared to the binding level of the scFv-Y1 molecule. A two-step staining procedure was employed, wherein 5 ng of IgG-Y1 were reacted with both RAJI cells (negative control, FIG. 44) and Jurkat cells (Y1 positive cells, FIG. 44). For detection, PE-labeled goat anti-human IgG was used. Similarly, 1 μg of scFv-Y1 was reacted with Jurkat cells (FIG. 44), and PE-labeled rabbit anti-scFv was used for detection.

[2] = Western blot with Y1 on aryl-sulfatase-treated heparin-BSA; format: binding; settings: 18 hr at 22° C.
Description: as §1, §2, §3
as §4, with “The membrane was then incubated with Super Signal mixture (Pierce) for 5 minutes as directed in the commercial protocol, then excess solution was dried. The membrane was use to expose it to X-ray film (Fuji), and the film was developed.” left out

[3] = system: platelet-rich-plasma (PRP); assay: Ristocetin-induced aggregation of platelet-rich plasma after preincubation with scFv; format: cell-based, human; settings: scFv 25 μg/ml
Procedure: The effect of Y1 (scfv) on aggregation of platelet-rich-plasma (PRP) was tested at various concentrations of Y1. PRP was pre-incubated with Y1 scfv, Y17 scfv, or a control sTM-1cFv for 4 min at 37° C. before being exposed to ristocetin, an inducer of platelet agglutination and aggregation. A reversible inhibitory effect was observed when scFv was added to PRP prior to the addition of ristocetin, and it was dose dependent.
Blood was collected into a tube containing 3.8% sodium citrate. Platelet-rich plasma was prepared by centrifugation at 250×g for 10 minutes.
as §5

[4] = system: glycocalicin, platelet lysate, KG-1 cell lysate, Raji cell lysate; assay: Western blot on glycocalicin, platelet, KG-1 and Raji lysates; format: binding, human; settings: FIG. 20
Description: Antibodies against GPIbα (CD42b) recognize platelet lysate and glycocalicin and but not KG-1 cell lysate (a Y1 binding positive myeloid cell line) or Raji cell lysate (a B cell line that is negative for Y1 binding at concentrations at which KG-1 cells are positive for Y1 binding). […] (FIG. 20).

KG-1 cells = assay: Binding competition of Y1 forms on KG-1 cells; parameters: species or system human; settings: Y1 IgG-Biotin 50 ng; Y1 scFvs 5 μg and 10 μg
Description: To compare the binding of the scFv monomer (also referred to as CONY1) with the Y1 dimer, binding competition experiments were done in vitro on KG-1 cells. In addition, these experiments also compared the binding of the full Y1 IgG to the scFv Y1 monomers. To perform this study, a Y1 IgG was labeled with biotin.

B1: Y1 scFv: fully human scFv clone binding platelets and myelogenous leukemia cells, SEQ ID NO: 25 (protein, listed as Homo sapiens)
scFv: MKYLLPTAAAGLLLLAAQPAMAEVQLVESGGGVVRPGGSLRLSCAASGFTFDDYGMSWVRQAPGKGLEWVSGINWNGGSTGYADSVKGRFTISRDNAKNSLYLQMNSLRAEDTAVYYCARMRAPVIWGQGTLVTVSRGGGGSGGGGSGGGGSSELTQDPAVSVALGQTVRITCQGDSLRSYYASWYQQKPGQAPVLVIYGKNNRPSGIPDRFSGSSSGNTASLTITGAQAEDEADYYCNSRDSSGNHVVFGGGTKLTVLGAAAEQKLISEEDLNGAA
Reactivity with Y1 ([1]; Mocarhagin, 7′ at 37° C.): No | Reactivity with Y1 ([1]; O-Sialo glycoprotein endopeptidase, 30′ at 37° C., SDS-PAGE reducing gel): Reactivity | Reactivity with Y1 ([1]; O-Sialo glycoprotein endopeptidase, 4 hr at 37° C.): No | Reactivity with Y1 ([1]; aryl-sulfatase, 18 hr at 22° C.): No | Reactivity with Y1 (Glycocalicin (GC)): Enhanced | % agglutination (washed platelets; scFv 4 μg/ml): 92% | % inhibition (washed platelets; scFv 4 μg/ml): 8% | % inhibition (washed platelets; scFv 4 μg/ml, listed as Y1): No inhibition | % agglutination (washed platelets; scFv 12.5 μg/ml): 67% | % inhibition (washed platelets; scFv 12.5 μg/ml): 33% | % inhibition (washed platelets; scFv 12.5 μg/ml, listed as Y1): only partial inhibition | % agglutination (washed platelets; scFv 25 μg/ml, ristocetin = 100% agglutination): 23% | more molecules needed for a level of detection similar to that of IgG-Y1 (Jurkat cells): approximately 10^3 fold | Reactivity with Y1 [2]: Binds to | % aggregation [3]: 87% | % inhibition ([3]; listed as Y1): no significant inhibition | recognition in Western blot [4]: recognized both glycocalicin, platelet lysate, and KG-1 cells, but not Raji cell extract | competition with Y1 IgG-Biotin (KG-1 cells): partially competed
